The data set in a line: label from the status in PepcDB records.

Results on 19 sequences are retold here after a protein production outcome set (Wang et al. 2014).
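Also: failed if final PepcDB status was selected cloned or expressed and not failed if soluble or beyond.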

Take “MWSVTGALTVAVPPTAAACRTKPFLISSSFPKQTKKLHLSSPSLSLPSSHFSSSFKTAATSIEQQSSVNKGESTKYHFLVANAKFMLDEEEHFQEQLFERLRYFGERELVQDFWLVIEPKFLDNFPKITQRLRRPAVALVSTNGTWITFMKLRLDRVLYDSFEATSLDEALASNPTTLEFDKPKNWVAPYPKYEPGWWDTFLPKVTQESAV”: the protein production entry is listed as “failed”. “MWTYSEYIIFFGIYSFIGWVLETIFASVNDKKIVNRGFLTGFFCPIYGFGAILTVQCSRMVGLSFKNPIISLISSVIFSIFLVTFLEYVTGFILEAIFNCKWWDYSNDAANIHGYICLKYSLLWGMLAFLLVQTIHPLISKMVFNISATTKEKVSIFLLVYFMIDTIKSVIDALNLRQAIMEYSNFSINKYRERILKYKRLIIAFPRLIILNRDIRRIVNDRFYKIKLEIKSKIQELF”: the protein production result is “failed”. In the case of “MWYTVQPGDSLYTISQRFGVTIAQIKSANQLTSDIIYVGQRLYIPIGIQAPVVYTVRPGDTLYLIARRYNTTVDSLMALNNLSSTELRIGQQLTIPLYTEAVVNVGTANIRRGPGTNFGIITRMTNGARLPVIGFSNNWYQVRLYNGREGWISGSIVTRNVYSGRRPITGVLGFYTLEEGPTLPSSFTSFANNTGQLSSTALFMFRISAANPTTIEKFGEFTDQDVRNLVAIAHRNNVKIMPVVHNLLYRPGGTTLAKNVVKTLVSDPRNRNAFALNLVNLIERYGFDGVNIDIEDVFIEDSDNLSLLYTEISEVLRPRGYFFSASVPSRVSDEPFNPFSDPFNYSVIGRAVDEFVVMLYNEFGWPGSPPGPAVTIGWMERVLRYTMSKMPRDKIMAAVSVFGFDFNLTTGRNTYVTYQSAINLARRYNSEIIFNEERQTPMFTYRDAQGNQHEVWFEDARSLRSKIQLAWELGIKGVALWRLGMEDPNIWPMLRNEVVVRKF” it was “failed”.

For the sequence “MWYYFQPKRLCHNSFMIPEKLLTYTKTIFEYSHSTVYIKDKNFHYQYMNNRGLKQLQLQEKDIMGMPDKALPFGKYAHFYNSHDYSAMEEIIYFQLDDCITKNGEKIFALSHKLPLKDEDGKTHGVIGFTKFMNLHQLMNNLNSKNTFLTPNLKINVNVDDWLKTTINLSRREMEVLYYFLQGKSIKLIAPLLHITERTVIFHLNNIKSKWGCYNKEDIYTKSFEKGLKNLTIIWDLLAMRS”, the protein production entry is recorded as “failed”. Turning to “MYAGRRDPSHVGIVMVGSPATATLILNDKVVVDLEGETLRLENGDAIALRPQAFAVLRHLVQNANRLVSKAELLEAVWGGAAVTDDSLVQCIHEIRRALGDERYAVLATVSRRGYRLSLERSDESALGGPSIAVLPFATMSGGEPNDYFADGLVEDIITNLSKIPGLFVIARNSSFGFRGEKADLRTIAAELRVRYLLQGSLRQSGGRLRIYAQLVDGASATHVWADRFEGAATDVFDLQDRLTEQIVGSIEPSVRRAEIERAHRKRPESLDAYDLYLRALPHAHANTPAQTDKALQLLARSIELQPDYVAAHGYAAWCYEQRYLRNGLDPADKAAALSHADIALGINSDDPQAMSIGAFVRANLTRDYDAAVEVLDRALAWNNNSTLAFGFSALVSAHSERHQRAVEHAHKALRLSPLDDPLSYHPYCALALTHLFAGAFADAARYAALAVRANPGFSIPYAYLAASHVGLGNVEAAHSAARRLIEVAPNFSVGGYVRTNLFQPYLMDALAAALRKAGLPE”, the protein production entry was “failed”. The result for “MYCRMEFNFFMNDVVQMARKEMVESGYDQLTTPEEVDEVLKEKGTVLVMVNSVCGCAGGIARPAAAYMKNYDKKPDRFVTVFAGQDKEATARAREYFKGYAPSSPSFALLKDGEIQMMVERHEIEGHEPIQVVQKLEKAFDQYCS” reads “failed”.

Take “MYCWNPELYAFSSSAQKSWGIELLTKFPLKGNERVLDVGCGDGKLSAEIAKRLPEGSVLGIDLSEAMVCFAKNHYPKEQFPNLSFMLMDAGNVPFESEFDVIFSNAALHWIKEPKAIETVLKGFLKSLRPEGKLLAQFGGRGNAAEVLLVLNSMLEDEKWSPYFGNFVFPYGFYGPEEYGKWLKNAGFSVRRAELYSKDMTLKGKEGLSGWFASTWHPFTQRVPENLKEEFIDELAVNFIKLHPLDNEGYVHIRMVRLEIEADIEK”: the protein production entry is on record as “failed”. In the case of “MYEDNAACIAQLKDGYIKGDRTKHILPKFFFTHDLQKSGDVRVLQIRSNDNLSDLFTKALPTATFKKLVYRIGLRRLKDLDEYTHKGE” it was “failed”; in that of “MYEIKGHHHISMVTKNANENNHFYKNVLGLRRVKMTVNQDDPSMYHLFYGDKTGSPGTELSFFEIPLVGRTYRGTNAITRIGLLVPSEDSLHYWKERFEKFDVKHSEMTTYANRPALQFEDAEGLRLVLLVSNGEKVEHWETWEKSEVPAKHQIQGMGSVELTVRRLDKMASTLTEIFGYTEVSRNDQEAIFQSIKGEAFGEIVVKYLDGPTEKPGRGSIHHLAIRVKNDAELAYWEEQVKQRGFHSSGIIDRFYFKSLYFRESNGILFEIATDGPGFTVDGDVEHLGEKLDLPPFLEDQRAEIEANLAPIEEK”, “not failed”. The result for “MYELVSPVNPLAVLRYIGHLLLVFSAVLLVPVLAAFVLGETDAAVIYGSSALVTAGTGFLLQKVLPDFELEIKEALILAALTFPLCSLVSAVPMAFSTGMPFLDAYFECVSGLTTTGLSLAPPSPTRLFFFTRSWLQWIGGIGIIVLVLGILIRPGTTAFRLYRVNFGESRIRPSVITTARTLGTVYLVLTLLSLLLLLFSGMPFYDAVCHTLSSISTGGFSTQAGSIGAYGGFLIPFLITVSCIMGAISFSLYPEVLKEPGTLIRDPQVRYLFGLSLLGTALFVLTLSGGEGGPELFHMMPDAVFQVVSALTGTGFSTIDLAPLSDASKGFLSAIMCIGGSIGSTTGGIKLFRLIVIVQLIKLVFYRFFLPREAITPLKVKSQVVDPDDFYRIMTYVLLYLAVLVFSAFIFMFYGINSADAIFETSSALATAGLSTGVTTPGMPSLLKLVLCADMLLGRVEIVPLFILLLPRTWFEINRNTGEKRSSKDTA” reads “failed”; that for “MYENKIVPLQMDRRKYLQSCVENMSITFVLFGTINIFFNLLINLINIGRINYEHFFKLFSITSGLWIVIILVQITSYLFSSGFFENLATIFLHDNERNKGDIWNIKSIGMFLINIITLGWLSIFSFYGIFSYIINSFDLINNFMLSTTILNFSVNLLFVLNQFLYFLFKVHEIRNIEFHNCLIHFLPGFSRMLESIVLTVKSKIMDNLSKNKNFVKAKNKKRFIDHNSYPYGDQ”, “failed”; that for “MYFLLNLVGLIVIMAVVFLCSPQKKKIKWRPIITLIVLELLITWFMLGTKVGSWAIGKIGDFFTWLIACASDGIAFAFPSVMANETVDFFFSALLPIIFIVTFFDILTYFGILPWLIDKIGWVISKASRLPKLESFFSIQMMFLGNTEALAVIRQQLTVLSNNRLLTFGLMSMSSISGSIIGSYLSMVPATYVFTAIPLNCLNALIIANLLNPVHVPEDEDIIYTPPKEEKKDFFSTISNSMLVGMNMVIVILAMVIGYVALTSAVNGILGVFVHGLTNQTIFAYLFSPFAFLLGLPVHDAMYVAQLMGMKLATNEFVAMLDLKNNLKSLPPHTVAVATTFLTSFANFSTVGMIYGTYNSILDGEKSTVIGRNVWKLLVSGIAVSLLSAAIVGLFVW”, “failed”. In the case of “MYHILIRKGLLNMKTVLIVGANGRVSIEATKIFLENSRFNVDLFLRNAHRIPDYASNRIKVYEGDAKNIEDLESALNNVDVVFASLSGSLDKQAETIVKAMDNKNVKRLIFVAAPGIYDELPEPFNQWNKEQFGEKLNRYRKASDIIENSDLDYTIIRPGWLTDKNENVYEITAKNETFKGTEVSRKSVASLAVQIAKNPELHSKENIGVNKPNTEGNKPAWFN” it was “failed”. As to “MYHVTVGISEKEYDAFAIASSQTNLLHSSKWAQVKSNWQNERLGFYKDDQLVAVASILIKSLPLGFTMLYIPRGPIMDYSNKELVNFVLKTLKNFGRKKRAVFAKFDPALLLRQYHLKEENVAEEIDESRQAIDNLKSAGAQWIGPTKAISETIQPRFQANIYTKANIEENFPKHTKRLIKDAKHRGVQIYRANIDDLPKFATVVALTENRKGVALRNENYFHQLMTIYGEDAYLYLAKVNLPKRLAQFKEQLLQIQKDLSETPSHQKSRLTRLNQQEASVKQYILEFQEFSKKYPDEPVIAGILSIRFGNVLEMLYAGMDDSFRKFYPQYLLNARVFEDAFKNDIVSANLGGVEGSLNDGLTKFKSNFNPMFEEYIGEFNLAINPLLYKLANLAYTIRKKQRHSH”, the protein production entry was “failed”.

As to “MYIMNIFITDFYHRNDLLDKAEAMIANHWPAFMMGTSVDDSYWERLYDVPFSHYQFMAVLKTQTEEKVIGVINSIALPWQTNSLNDLPDEGWDRVFQLGMEAEEQQLPCHLISALSVTIDHHYRGKGIAQRLINTLKEHAKKQGYLGVAVPVRPTLKHCYPLHSFAEYCQWKNDNDEPFDPWIRTHWRL”, the protein production entry was “failed”. The result for “MYKCLIISILTWFSCIVSVYAQAIPKEARNYLEEGKIYYDGANYLKALDSYLGAYKFVPNDPGVNYSIALCYIQTYSYDKALTYLIPAKKAGIKDPLLDYYMGLAYHANSNIDEALKSLTAFQSTLRSSDKELTAQTAKYITYCNNAKTLMLTPVKMTITNLGASVNSAYPDYNPAISVDESTIIYTSRRPNSTGGLISEMDGHYFEDIYMSNKQTNNSWGTSIQIDQTINTTSHDACVGLSSEGQTMIVYKDDGGGDLYYSNLSGQNWSKPISFGKAINTDGWEACGNFSPDGNYLFFVSNKKGGFGGTDIYYAVKNAAGVWGAPVNMGPEINTKEDEFSPYLHADGKTFYFSSQAHTSMGGFDIFQSTIDLSMQPIAVKSKPENLGYPINTVGDEIYFVWSADNKRAYFSSAREGGLGDKDLYLLERPVAKAALVLLKGTISDCKTKEFIQASITVTDIESGKLIGKYVSNSSTGKYIVTLPAGKNYSITVEAKGYLFHSKNINIPKLEEFKEIDDVICLDKIDIGTTIVLNNVFFDVNKSTLRKESETELDKLFDILSKNPKIKIEVAGHTDSDGDTQANLTLSDARAHTVKDYLIGKGISADRIIYVGHGEGKPVVPNDTPENKQLNRRTEIKILEN” reads “failed”; that for “MYKLSLVIKSLIIALLTTSLLSAGFQLRGDYLLDDDLQTLYVSSSDIHGELTRLVKLNLTRNQVNVLKHSKADVPELRILSDKLDRRTLSLFSNGQVAEYELIYSVHYQVRFTGEDARDFRFELYRDYQDDPNIALAKSRELSLLLSEMRTSAADKILRDLARIQRLEHHHHHH”, “failed”; that for “MYKSLFTIIILLYSASSYAKSESPPASTITFIAQIDHVELNKTALSHDMKLVLADRFYFKTSNPCETNSISARPESMDITDKAYADKLKKLETPFLDDRYFFMTINQCDGNGTPMLTDIKVCTTELCGAEYTKKMSTVWLDETLKPTAKRLAIYFIQSPLPYDEEKKQWKVTGWYISSTDNQSSTKQIAFEGYTDTDNLSDSKFISSFKSWFESGKIKNIANYNPKGERDGKYESYYNSNGNVYESLSFSNGLINGEFITYYENGAIESKRHFNNDKIKDGECPHFYEDGKIKQQHSYLNSKLDGPAYEYYPDGKLMQENFYQQSVLIGNDTSYYQSGKISSIHNRNSRGQYDGANERYSEEGKLLSKSVYKDGKQISVQTWYENGQKEEEKHFDEQGQLNGLVKQWYKNGNLAKSQNYKHDILDGNSEEWYENGIPESLYPYKNGKTDGIAKSWNKYGKLTYSIEYKNGVENGAYRNWSKNTGKLTKETLYVNGIRQGVEKEFNDRTGKLLTSTQYVNNKRHGTEETYDQNGIKYITCYQNDQKLSSLDNPTQIKDNATTGDSSAQFALGKYEFICANIDEGIKWLTKSAEQKNTDAIYFLATAYKGNGIPANNEKYLAYLQQAATLGSSNAQAEIGYLYLIGKELPQNLPDAGVWFKKAAAQGNFAAHFYLGRMYQNGDGVERNMEKARFHLSNAAEGGIEPALKALNELEHQTK”, “failed”.

Consider “MYLAASADTKPLPDSDDEEDQHTNAVSIPIAVHNMASALLQVEQAIGKRFLKEPYGMKKWDPKQEALKLACDSRLHQWEVSLMESTSFAQVFLHLNILHDCIQWRRSTNKSLCKVCRRGSDPEKMLLCDECNAGTHMFCLKPKLRSVPPGNWYCNDCVKSLGLSNG”, for which the protein production result is given as “failed”.
